We go through 9 substances from patent publication US20120322725A1.

Experiment in all cases: cell-based or functional assay
The target in one test is T1, GIP receptor (UniProt P48546).
T1 sequence (looked up): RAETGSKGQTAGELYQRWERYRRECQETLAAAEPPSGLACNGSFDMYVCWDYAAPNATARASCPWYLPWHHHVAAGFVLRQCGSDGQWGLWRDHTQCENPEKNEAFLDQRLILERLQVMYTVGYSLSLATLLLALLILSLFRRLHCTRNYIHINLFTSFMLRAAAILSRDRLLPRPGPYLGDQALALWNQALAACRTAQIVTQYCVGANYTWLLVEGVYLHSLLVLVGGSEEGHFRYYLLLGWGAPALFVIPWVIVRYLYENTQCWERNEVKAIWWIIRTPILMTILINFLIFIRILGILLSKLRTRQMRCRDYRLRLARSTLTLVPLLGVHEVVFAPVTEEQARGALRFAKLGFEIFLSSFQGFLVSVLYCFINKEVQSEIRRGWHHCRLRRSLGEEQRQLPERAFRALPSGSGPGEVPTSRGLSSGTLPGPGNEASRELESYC

The next test addresses GLP-1 receptor (UniProt P43220).
The target in another test is glucagon receptor (UniProt P47871).
glucagon receptor, sequence (P47871 26-477 limits assumed): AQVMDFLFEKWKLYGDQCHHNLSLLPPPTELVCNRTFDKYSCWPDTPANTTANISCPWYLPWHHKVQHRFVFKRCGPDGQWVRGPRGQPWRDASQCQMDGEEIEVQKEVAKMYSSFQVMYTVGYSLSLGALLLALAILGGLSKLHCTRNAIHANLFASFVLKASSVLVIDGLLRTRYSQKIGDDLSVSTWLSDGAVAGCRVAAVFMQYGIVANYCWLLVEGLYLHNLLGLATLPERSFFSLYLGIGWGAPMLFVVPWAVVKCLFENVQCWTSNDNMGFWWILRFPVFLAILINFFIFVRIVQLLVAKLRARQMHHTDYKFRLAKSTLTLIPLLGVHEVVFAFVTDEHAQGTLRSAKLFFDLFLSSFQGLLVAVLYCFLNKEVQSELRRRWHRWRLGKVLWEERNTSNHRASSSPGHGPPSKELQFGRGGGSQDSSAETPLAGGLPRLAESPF

GLP-1 receptor, sequence (P43220 24-463 limits assumed): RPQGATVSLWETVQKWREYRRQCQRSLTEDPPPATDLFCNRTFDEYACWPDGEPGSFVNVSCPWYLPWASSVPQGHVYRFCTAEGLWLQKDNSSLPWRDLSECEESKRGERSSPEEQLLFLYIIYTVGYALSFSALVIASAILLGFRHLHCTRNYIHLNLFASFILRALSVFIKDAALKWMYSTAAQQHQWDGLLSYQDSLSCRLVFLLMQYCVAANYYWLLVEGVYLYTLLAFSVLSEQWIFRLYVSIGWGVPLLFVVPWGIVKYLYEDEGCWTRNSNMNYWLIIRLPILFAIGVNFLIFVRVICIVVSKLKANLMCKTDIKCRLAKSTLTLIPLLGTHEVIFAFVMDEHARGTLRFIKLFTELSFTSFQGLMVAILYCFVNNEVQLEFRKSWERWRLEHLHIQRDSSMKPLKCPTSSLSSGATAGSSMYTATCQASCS

“PLA6, (E16K20), C24 G(6-29)/A1, Aib2, E3, K40 GIP(1-40)” came in with a GIP (EC50) with GIP receptor of 1.29 nM. The same substance came in with a GLP-1 (EC50) with GLP-1 receptor of 367 nM. In addition, in the test with glucagon receptor, the Glucagon IC50 turned out to be 40.1 nM.

In the case of “HAibEGT-PLA6, (E16K20) G(1-29) (peptide)”, the GLP-1 (EC50) with GLP-1 receptor amounted to 3.6 nM. For the same substance, the Glucagon IC50 in the test with glucagon receptor was 12 nM.

In the test with GLP-1 receptor, “HAibEGT-PLA6, (E16K20), cex, K40(rErEC16) G(1-40) (peptide)” displayed a GLP-1 (EC50) of 0.76 nM. The same substance gave a Glucagon IC50 with glucagon receptor of 150 nM.

In turn, A1, Aib2, E3 GIP(1-40) (peptide) yielded a GIP (EC50) with GIP receptor of 3.89 nM.

Regarding “HAibEGT-PLA6, K10(rErEC16), (E16K20) G(1-29) (peptide)”, the GLP-1 (EC50) in the test with GLP-1 receptor came out at 0.19 nM. This substance came in with a Glucagon IC50 in the test with glucagon receptor of 14.3 nM.

In turn, “HAibEGT-PLA6, K10(rErEC16), (E16K20), C24 G(1-29)/A1, Aib2, E3, K40 GIP(1-40)” returned a GIP (EC50) with GIP receptor of 0.347 nM. This substance also gave a GLP-1 (EC50) with GLP-1 receptor of 0.813 nM.

As to “HAibEGT-PLA6, (E16K20), C24, cex, K40(rErEC16) G(1-40)/A1, Aib2, E3, K40 GIP(1-40)”, the GIP (EC50) in the test with GIP receptor was determined as 0.379 nM. The GLP-1 (EC50) with GLP-1 receptor was 0.363 nM.

In the test with GIP receptor, “HAibEGT-PLA6, (E16K20), C24 G(1-29)/A1, Aib2, E3, K40 GIP(1-40)” registered a GIP (EC50) of 1.58 nM. Moreover, the GLP-1 (EC50) in the test with GLP-1 receptor worked out at 11.7 nM.

In turn, “[d-Cys5(20kDaPEG), E9]Glucagon(aa5-29)-NH2 (peptide)” yielded an IC50(nM) (cAMP, inhibit 0.2 mM Glucagon) with glucagon receptor of 14800 nM.
